# Measurements taken from US11845989B2, “Treatment of ophthalmic conditions with angiopoietin-like 7 (ANGPTL7) inhibitors” (Regeneron Pharmaceuticals, Inc., priority 2019, dated 2023).
# B1: ANGPTL7 protein: ANGPTL7 protein (catalog #4960-AN-025; R&D Systems), murine Angptl7 protein injected into mouse eyes (protein, UniProt Q8R1Q3 22-337, looked up)
# Angiopoietin-related protein 7: QKPHKRKTQLKAAGCCEEMRELKAQVANLSSLLGELSRKQESDWVSVVMQVMELESSSKHMESRLSTAESKYSEMNNQIDIMQLQAAQTVTQTSADAIYDCSSLYQKNYRISGVYKLPPDEFLGSPELEVFCDMETSGGGWTIIQRRKSGLVSFYQDWRQYKQGFGSIRGDFWLGNEHIHRLTRQPSRLRVELEDWEGNARYAEYSYFALGNELNSYRLFLGNYSGNVGKDALLYHNNTVFSTKDKDNDNCLDKCAQLRKGGYWYNCCTDSNLNGVYYRLGEHRKHMDGISWYGWHGANYSLKRVEMKIRPEAFKP
# Columns and labels:
# [1] = system: mouse eyes; assay: Intravitreal injection of ANGPTL7 protein in mice, IOP measured over time; format: in vivo
# Experimental: (§1) Isoflurane anesthetized IOPs were measured as previously described. For IOP measurements, mice were anesthetized before IOP was measured in both eyes using a TonoLab rebound tonometer (Colonial Medical Supply, Franconia, N H). IOP measurements for both eyes were completed in 3-5 minutes. IOP in each eye was measured before start of Angptl7 injections and every day afterwards for six days.
# A 33-gauge needle with a glass microsyringe (5-4 volume; Hamilton Company) was used. The eye was proptosed, and the needle was inserted through the equatorial sclera and inserted into the vitreous chamber at an angle of approximately 45 degrees, taking care to avoid touching the posterior part of the lens or the retina. ANGPTL7 protein (catalog #4960-AN-025; R&D Systems, Minneapolis, MN) or PBS (1 μL) was injected into the vitreous over the course of 1 minute. The needle was then left in place for a further 45 seconds (to facilitate mixing), before being rapidly withdrawn. Only one injection was administered at day 0.
# [2] = system: mouse eyes; assay: Intracameral injection of ANGPTL7 protein in mice, IOP measured over time; format: in vivo
# Experimental: as §1
# A 33-gauge needle with a glass microsyringe (5-4 volume) (Hamilton Company) was used. Before and during injection, mice were anesthetized with isoflurane (2.5%) containing oxygen (0.8 L/min). For topical anesthesia, both eyes received one to two drops of 0.5% proparacaine HCl (Akorn, Inc.). Each eye was proptosed and the needle was inserted through the cornea just above the limbal region and into the anterior chamber at an angle parallel to the cornea, taking care to avoid touching the iris, anterior lens capsule epithelium, or corneal endothelium. Up to 1 μL of ANGPTL7 protein (catalog #4960-AN-025; R&D Systems, Minneapolis, MN) or PBS was injected slowly (over a 30-second period). The needle was then withdrawn. The procedure was performed on both eyes of each animal. Only one injection was administered at day 0.
molecule,measurement,setting,value
B1,elevation of IOP,"[1]; mice, single intravitreal injection at day 0, after an initial drop, starting on day 4 until end of experiment on day 7",4-5 mmHg
same,elevation of IOP compared to baseline,"[1]; mice, single intravitreal injection at day 0, starting on day 4 until day 7",22-25%
same,IOP in Angptl7-treated eyes compared to control eyes,"[1]; mouse eyes, intravitreal route, after an initial drop (FIG. 6A)",elevated
same,elevation of IOP,"[2]; mice, single intracameral injection at day 0, after an initial drop, starting on day 3 until end of experiment on day 7",2-5 mmHg
same,IOP in Angptl7-treated eyes compared to control eyes,"[2]; mouse eyes, intracameral route, after an initial drop (FIG. 6B)",elevated
